This note sets out measurements from PMC11628620, “A core network in the SARS-CoV-2 nucleocapsid NTD mediates structural integrity and selective RNA-binding”.

Series [1] deals with T1, SARS-CoV-2 nucleocapsid NTD WT (SARS-CoV-2 (Wuhan-Hu-1), UniProt P0DTC9 44-180). As to the kind of experiment: EMSA. The note with it: protein: recombinant; tags: His6-Trx cleaved by TEV; one extra N-terminal G; hairpin with 22 nt 3' extension.
Series [2] deals with T1, SARS-CoV-2 nucleocapsid NTD WT. The series is described as follows: MST. The note with it: protein: recombinant; tags: His6-Trx cleaved by TEV; one extra N-terminal G; label: 3'-Cy5; transiently folds as stem-loop.
Series [3] addresses SARS-CoV-2 nucleocapsid NTD WT (SARS-CoV-2 (Wuhan-Hu-1), UniProt P0DTC9 44-180). As to the kind of experiment: MST. The following applies: protein: recombinant; tags: His6-Trx cleaved by TEV; one extra N-terminal G; label: 3'-Cy5; hairpin.

B1: SL4ext (structured_RNA)
RNA: GGUCUGUGUGGCUGUCACUCGGCUGCAUGCUUAGUGCACUCACGCAGUAUAAUUAAUAACUAAUUACUG
As to B1, the binding result in series [1] is recorded as “binds”.

B2: Ext (3'-Cy5) (ssRNA)
RNA: GGAUAAUUAAUAACUAAUUACU
With B2, in series [2], the Kd is 0.334 ± 0.047 µM.

B3: SL4 (3'-Cy5) (structured_RNA)
RNA: GGGUGUGGCUGUCACUCGGCUGCAUGCUUAGUGCACUCACGCCC
For B3, the Kd in series [3] was found to be 14.1 ± 2.23 µM.
